Data from US20220204580A1 (AstraZeneca / MedImmune, published 2022).
One block for each binder: values may come before it. Numbered stars: 1 amine (or outer) side, 2 acyl side, 3 side chain; on linkers, the order of the positions; unused ones are H or OH. Bridge positions count the residues as written; N and C are the ends. Square brackets hold non-standard residues; d marks the D form. Side chains are listed from the residue outwards. Ends that are not written are not given here. * marks the point of attachment. C18 diacid = O=C(O)CCCCCCCCCCCCCCCCC(=O)*; γGlu = O=C(O)[C@H](CCC(=O)[*:2])N[*:1]; AEEA = NCCOCCOCC(=O)O; Aib = CC(C)(N)C(=O)O

Assays:
[1] = target: T1, human amylin receptor (calcitonin receptor co-expressed with receptor activity modifying protein, RAMP3) (human, UniProt P30988 25-474; O60896 24-148); assay: cell-based or functional assay
T1 sequence (looked up) 1: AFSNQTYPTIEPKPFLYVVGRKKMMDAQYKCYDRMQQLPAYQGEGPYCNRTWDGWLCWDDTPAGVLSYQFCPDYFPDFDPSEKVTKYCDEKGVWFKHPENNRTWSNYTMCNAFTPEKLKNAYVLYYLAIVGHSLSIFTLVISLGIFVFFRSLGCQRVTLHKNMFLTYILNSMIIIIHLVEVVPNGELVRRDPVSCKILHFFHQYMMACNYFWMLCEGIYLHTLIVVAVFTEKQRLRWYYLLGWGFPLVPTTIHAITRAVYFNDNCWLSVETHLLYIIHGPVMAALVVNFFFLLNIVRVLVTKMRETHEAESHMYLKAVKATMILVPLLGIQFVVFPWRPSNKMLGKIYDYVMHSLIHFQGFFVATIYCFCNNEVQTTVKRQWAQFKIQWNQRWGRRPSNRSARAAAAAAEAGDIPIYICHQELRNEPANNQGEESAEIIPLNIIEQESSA
T1 sequence (looked up) 2: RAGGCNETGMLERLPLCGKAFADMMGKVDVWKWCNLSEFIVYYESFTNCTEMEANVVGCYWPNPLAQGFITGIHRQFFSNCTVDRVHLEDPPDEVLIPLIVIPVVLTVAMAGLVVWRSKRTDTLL

[2] = target: T2, human calcitonin receptor (human, UniProt P30988 25-474); assay: cell-based or functional assay
T2 sequence (looked up): T1 sequence (looked up) 1

B3: Peptide 36 (SEQ ID NO: 36) (peptide)
peptide: K([γGlu-C18 diacid])KCNTATCATQRLANFL[Aib]HSS[Aib]NFGPILPPTNVGSNTY-NH2
modifications: disulfide 3-8; N-terminus assumed
SMILES: CC[C@H](C)[C@H](NC(=O)[C@@H]1CCCN1C(=O)CNC(=O)[C@H](Cc1ccccc1)NC(=O)[C@H](CC(N)=O)NC(=O)C(C)(C)NC(=O)[C@H](CO)NC(=O)[C@H](CO)NC(=O)[C@H](Cc1c[nH]cn1)NC(=O)C(C)(C)NC(=O)[C@H](CC(C)C)NC(=O)[C@H](Cc1ccccc1)NC(=O)[C@H](CC(N)=O)NC(=O)[C@H](C)NC(=O)[C@H](CC(C)C)NC(=O)[C@H](CCCNC(=N)N)NC(=O)[C@H](CCC(N)=O)NC(=O)[C@@H](NC(=O)[C@H](C)NC(=O)[C@@H]1CSSC[C@H](NC(=O)[C@H](CCCCN)NC(=O)[C@@H](N)CCCCNC(=O)CC[C@H](NC(=O)CCCCCCCCCCCCCCCCC(=O)O)C(=O)O)C(=O)N[C@@H](CC(N)=O)C(=O)N[C@@H]([C@@H](C)O)C(=O)N[C@@H](C)C(=O)N[C@@H]([C@@H](C)O)C(=O)N1)[C@@H](C)O)C(=O)N[C@@H](CC(C)C)C(=O)N1CCC[C@H]1C(=O)N1CCC[C@H]1C(=O)N[C@H](C(=O)N[C@@H](CC(N)=O)C(=O)N[C@H](C(=O)NCC(=O)N[C@@H](CO)C(=O)N[C@@H](CC(N)=O)C(=O)N[C@H](C(=O)N[C@@H](Cc1ccc(O)cc1)C(N)=O)[C@@H](C)O)C(C)C)[C@@H](C)O
- EC50 (cAMP production) [1]: 0.331 nM
- Ratio (EC50 hCTR / EC50 hAMYR3) [1]: 19
- EC50 (cAMP production) [2]: 6.39 nM

Binder: K([γGlu-γGlu-C18 diacid])CNTATCATQRLANFLVHSSNNFGPILPPTNVGSNTY-NH2 (disulfide 2-7) [Peptide 5 (SEQ ID NO: 5)]
- EC50 (cAMP production) [1]: 0.174 nM
- Ratio (EC50 hCTR / EC50 hAMYR3) [1]: 21
- EC50 (cAMP production) [2]: 3.6 nM

Binder: K([AEEA-AEEA-γGlu-C18 diacid])CNTATCATQRLANFLVHSSNNFGPILPPTNVGSNTY-NH2 (disulfide 2-7) [Peptide 6 (SEQ ID NO: 6)]
- EC50 (cAMP production) [1]: 0.068 nM
- Ratio (EC50 hCTR / EC50 hAMYR3) [1]: 5
- EC50 (cAMP production) [2]: 0.31 nM

B4: Peptide 37 (SEQ ID NO: 37) (peptide)
peptide: K([γGlu-C18 diacid])KCNTATCATQRLANFLSHSS[Aib]NFGPILPPTNVGSNTY-NH2
modifications: disulfide 3-8; N-terminus assumed
SMILES: CC[C@H](C)[C@H](NC(=O)[C@@H]1CCCN1C(=O)CNC(=O)[C@H](Cc1ccccc1)NC(=O)[C@H](CC(N)=O)NC(=O)C(C)(C)NC(=O)[C@H](CO)NC(=O)[C@H](CO)NC(=O)[C@H](Cc1c[nH]cn1)NC(=O)[C@H](CO)NC(=O)[C@H](CC(C)C)NC(=O)[C@H](Cc1ccccc1)NC(=O)[C@H](CC(N)=O)NC(=O)[C@H](C)NC(=O)[C@H](CC(C)C)NC(=O)[C@H](CCCNC(=N)N)NC(=O)[C@H](CCC(N)=O)NC(=O)[C@@H](NC(=O)[C@H](C)NC(=O)[C@@H]1CSSC[C@H](NC(=O)[C@H](CCCCN)NC(=O)[C@@H](N)CCCCNC(=O)CC[C@H](NC(=O)CCCCCCCCCCCCCCCCC(=O)O)C(=O)O)C(=O)N[C@@H](CC(N)=O)C(=O)N[C@@H]([C@@H](C)O)C(=O)N[C@@H](C)C(=O)N[C@@H]([C@@H](C)O)C(=O)N1)[C@@H](C)O)C(=O)N[C@@H](CC(C)C)C(=O)N1CCC[C@H]1C(=O)N1CCC[C@H]1C(=O)N[C@H](C(=O)N[C@@H](CC(N)=O)C(=O)N[C@H](C(=O)NCC(=O)N[C@@H](CO)C(=O)N[C@@H](CC(N)=O)C(=O)N[C@H](C(=O)N[C@@H](Cc1ccc(O)cc1)C(N)=O)[C@@H](C)O)C(C)C)[C@@H](C)O
- EC50 (cAMP production) [1]: 0.249 nM
- Ratio (EC50 hCTR / EC50 hAMYR3) [1]: 8
- EC50 (cAMP production) [2]: 1.96 nM

The next lines start with the values.

- EC50 (cAMP production) [1]: 0.588 nM
- Ratio (EC50 hCTR / EC50 hAMYR3) [1]: 29
- EC50 (cAMP production) [2]: 16.9 nM
B1: Peptide 45 (SEQ ID NO: 45) (peptide)
peptide: K([AEEA-AEEA-γGlu-C18 diacid])CNTATCATQRLANFLRHSS[Aib]NFGPILPPTEVGSNTY-NH2
modifications: disulfide 2-7; N-terminus assumed
SMILES: CC[C@H](C)[C@H](NC(=O)[C@@H]1CCCN1C(=O)CNC(=O)[C@H](Cc1ccccc1)NC(=O)[C@H](CC(N)=O)NC(=O)C(C)(C)NC(=O)[C@H](CO)NC(=O)[C@H](CO)NC(=O)[C@H](Cc1c[nH]cn1)NC(=O)[C@H](CCCNC(=N)N)NC(=O)[C@H](CC(C)C)NC(=O)[C@H](Cc1ccccc1)NC(=O)[C@H](CC(N)=O)NC(=O)[C@H](C)NC(=O)[C@H](CC(C)C)NC(=O)[C@H](CCCNC(=N)N)NC(=O)[C@H](CCC(N)=O)NC(=O)[C@@H](NC(=O)[C@H](C)NC(=O)[C@@H]1CSSC[C@H](NC(=O)[C@@H](N)CCCCNC(=O)COCCOCCNC(=O)COCCOCCNC(=O)CC[C@H](NC(=O)CCCCCCCCCCCCCCCCC(=O)O)C(=O)O)C(=O)N[C@@H](CC(N)=O)C(=O)N[C@@H]([C@@H](C)O)C(=O)N[C@@H](C)C(=O)N[C@@H]([C@@H](C)O)C(=O)N1)[C@@H](C)O)C(=O)N[C@@H](CC(C)C)C(=O)N1CCC[C@H]1C(=O)N1CCC[C@H]1C(=O)N[C@H](C(=O)N[C@@H](CCC(=O)O)C(=O)N[C@H](C(=O)NCC(=O)N[C@@H](CO)C(=O)N[C@@H](CC(N)=O)C(=O)N[C@H](C(=O)N[C@@H](Cc1ccc(O)cc1)C(N)=O)[C@@H](C)O)C(C)C)[C@@H](C)O

- EC50 (cAMP production) [1]: 0.47 nM
- Ratio (EC50 hCTR / EC50 hAMYR3) [1]: 6
- EC50 (cAMP production) [2]: 2.95 nM
B2: Peptide 42 (SEQ ID NO: 42) (peptide)
peptide: K([γGlu-C18 diacid])KCNTATCATQRLANFLVHSS[Aib]NFGPILPPTNVGSETY-NH2
modifications: disulfide 3-8; N-terminus assumed
SMILES: CC[C@H](C)[C@H](NC(=O)[C@@H]1CCCN1C(=O)CNC(=O)[C@H](Cc1ccccc1)NC(=O)[C@H](CC(N)=O)NC(=O)C(C)(C)NC(=O)[C@H](CO)NC(=O)[C@H](CO)NC(=O)[C@H](Cc1c[nH]cn1)NC(=O)[C@@H](NC(=O)[C@H](CC(C)C)NC(=O)[C@H](Cc1ccccc1)NC(=O)[C@H](CC(N)=O)NC(=O)[C@H](C)NC(=O)[C@H](CC(C)C)NC(=O)[C@H](CCCNC(=N)N)NC(=O)[C@H](CCC(N)=O)NC(=O)[C@@H](NC(=O)[C@H](C)NC(=O)[C@@H]1CSSC[C@H](NC(=O)[C@H](CCCCN)NC(=O)[C@@H](N)CCCCNC(=O)CC[C@H](NC(=O)CCCCCCCCCCCCCCCCC(=O)O)C(=O)O)C(=O)N[C@@H](CC(N)=O)C(=O)N[C@@H]([C@@H](C)O)C(=O)N[C@@H](C)C(=O)N[C@@H]([C@@H](C)O)C(=O)N1)[C@@H](C)O)C(C)C)C(=O)N[C@@H](CC(C)C)C(=O)N1CCC[C@H]1C(=O)N1CCC[C@H]1C(=O)N[C@H](C(=O)N[C@@H](CC(N)=O)C(=O)N[C@H](C(=O)NCC(=O)N[C@@H](CO)C(=O)N[C@@H](CCC(=O)O)C(=O)N[C@H](C(=O)N[C@@H](Cc1ccc(O)cc1)C(N)=O)[C@@H](C)O)C(C)C)[C@@H](C)O

- EC50 (cAMP production) [1]: 1.05 nM
- Ratio (EC50 hCTR / EC50 hAMYR3) [1]: 10
- EC50 (cAMP production) [2]: 10.4 nM
B5: Peptide 39 (SEQ ID NO: 39) (peptide)
peptide: K([γGlu-C18 diacid])KCNTATCATQRLANFLEHSS[Aib]NFGPILPPTNVGSNTY-NH2
modifications: disulfide 3-8; N-terminus assumed
SMILES: CC[C@H](C)[C@H](NC(=O)[C@@H]1CCCN1C(=O)CNC(=O)[C@H](Cc1ccccc1)NC(=O)[C@H](CC(N)=O)NC(=O)C(C)(C)NC(=O)[C@H](CO)NC(=O)[C@H](CO)NC(=O)[C@H](Cc1c[nH]cn1)NC(=O)[C@H](CCC(=O)O)NC(=O)[C@H](CC(C)C)NC(=O)[C@H](Cc1ccccc1)NC(=O)[C@H](CC(N)=O)NC(=O)[C@H](C)NC(=O)[C@H](CC(C)C)NC(=O)[C@H](CCCNC(=N)N)NC(=O)[C@H](CCC(N)=O)NC(=O)[C@@H](NC(=O)[C@H](C)NC(=O)[C@@H]1CSSC[C@H](NC(=O)[C@H](CCCCN)NC(=O)[C@@H](N)CCCCNC(=O)CC[C@H](NC(=O)CCCCCCCCCCCCCCCCC(=O)O)C(=O)O)C(=O)N[C@@H](CC(N)=O)C(=O)N[C@@H]([C@@H](C)O)C(=O)N[C@@H](C)C(=O)N[C@@H]([C@@H](C)O)C(=O)N1)[C@@H](C)O)C(=O)N[C@@H](CC(C)C)C(=O)N1CCC[C@H]1C(=O)N1CCC[C@H]1C(=O)N[C@H](C(=O)N[C@@H](CC(N)=O)C(=O)N[C@H](C(=O)NCC(=O)N[C@@H](CO)C(=O)N[C@@H](CC(N)=O)C(=O)N[C@H](C(=O)N[C@@H](Cc1ccc(O)cc1)C(N)=O)[C@@H](C)O)C(C)C)[C@@H](C)O
